# Experiments:
# [1] = test system: C[C@H]1O[C@H](OP(=O)(O)O)[C@H](O)[C@@H](O)[C@H]1O; experiment: Pi release from PPi, phosphomolybdate colorimetry; type: biochemical, Arabidopsis thaliana; settings: forward reaction, co-substrate UTP, 5 mM MgCl2, pH 7.5, room temperature
# [2] = test system: O=C(O)[C@H]1O[C@H](OP(=O)(O)O)[C@H](O)[C@@H](O)[C@H]1O; experiment: Pi release from PPi, phosphomolybdate colorimetry; type: biochemical, Arabidopsis thaliana; settings: forward reaction, co-substrate UTP, 5 mM MgCl2, pH 7.5, room temperature
# barley UGPase = biological target: T1, barley UGPase (Hordeum vulgare, UniProt Q43772); experiment: Pi release from PPi, phosphomolybdate colorimetry; type: biochemical; settings: forward reaction, 5 mM MgCl2, pH 7.5, room temperature
# T1 construct: recombinant, expressed in E. coli, purified to homogeneity as earlier reported
# Arabidopsis UGPase2 = biological target: T2, Arabidopsis UGPase2 (Arabidopsis thaliana, UniProt P57751); experiment: Pi release from PPi, phosphomolybdate colorimetry; type: biochemical; settings: 1 mM Glc-1-P; 1 mM UTP; 5 mM MgCl2; pH 7.5; room temperature
# T2 construct: gene UGP1; recombinant, expressed in E. coli, purified to homogeneity as earlier reported
# [3] = test system: O=P(O)(O)O[C@H]1O[C@H](CO)[C@@H](O)[C@H](O)[C@H]1O; experiment: Pi release from PPi, phosphomolybdate colorimetry; type: biochemical, Hordeum vulgare; settings: forward reaction, co-substrate UTP, 5 mM MgCl2, pH 7.5, room temperature
# Arabidopsis UGPase1 = biological target: T3, Arabidopsis UGPase1 (Arabidopsis thaliana, UniProt Q9M9P3); experiment: Pi release from PPi, phosphomolybdate colorimetry; type: biochemical; settings: forward reaction; 5 mM MgCl2; pH 7.5; room temperature; estimate, clouding at and above 3 mM
# T3 construct: gene UGP2; recombinant, expressed in E. coli, purified to homogeneity as earlier reported
# [4] = test system: CC(=O)N[C@H]1[C@@H](OP(=O)(O)O)O[C@H](CO)[C@H](O)[C@@H]1O; experiment: Pi release from PPi, phosphomolybdate colorimetry; type: biochemical, Arabidopsis thaliana; settings: forward reaction, co-substrate UTP, 5 mM MgCl2, pH 7.5, room temperature
# [5] = test system: O=c1ccn([C@@H]2O[C@H](COP(=O)(O)OP(=O)(O)OP(=O)(O)O)[C@@H](O)[C@H]2O)c(=O)[nH]1; experiment: Pi release from PPi, phosphomolybdate colorimetry; type: biochemical, Arabidopsis thaliana; settings: forward reaction, co-substrate GalNAc-1-P, 5 mM MgCl2, pH 7.5, room temperature
# [6] = test system: O=P(O)(O)O[C@H]1O[C@H](CO)[C@@H](O)[C@H](O)[C@H]1O; experiment: Pi release from PPi, phosphomolybdate colorimetry; type: biochemical, Arabidopsis thaliana; settings: forward reaction, co-substrate UTP, 5 mM MgCl2, pH 7.5, room temperature
# [7] = test system: O=c1ccn([C@@H]2O[C@H](CO[P@@](=O)(O)O[P@@](=O)(O)O[C@H]3O[C@H](CO)[C@@H](O)[C@H](O)[C@H]3O)[C@@H](O)[C@H]2O)c(=O)[nH]1; experiment: purified protein; type: biochemical, Arabidopsis thaliana; settings: reverse reaction, co-substrate PPi, 5 mM MgCl2, pH 7.5
# O=P(O)(O)OP(=O)(O)O = experiment: purified protein; type: biochemical, Arabidopsis thaliana; settings: reverse reaction, co-substrate UDP-Glc, 5 mM MgCl2, pH 7.5
# T1 sequence (Q43772 whole entry): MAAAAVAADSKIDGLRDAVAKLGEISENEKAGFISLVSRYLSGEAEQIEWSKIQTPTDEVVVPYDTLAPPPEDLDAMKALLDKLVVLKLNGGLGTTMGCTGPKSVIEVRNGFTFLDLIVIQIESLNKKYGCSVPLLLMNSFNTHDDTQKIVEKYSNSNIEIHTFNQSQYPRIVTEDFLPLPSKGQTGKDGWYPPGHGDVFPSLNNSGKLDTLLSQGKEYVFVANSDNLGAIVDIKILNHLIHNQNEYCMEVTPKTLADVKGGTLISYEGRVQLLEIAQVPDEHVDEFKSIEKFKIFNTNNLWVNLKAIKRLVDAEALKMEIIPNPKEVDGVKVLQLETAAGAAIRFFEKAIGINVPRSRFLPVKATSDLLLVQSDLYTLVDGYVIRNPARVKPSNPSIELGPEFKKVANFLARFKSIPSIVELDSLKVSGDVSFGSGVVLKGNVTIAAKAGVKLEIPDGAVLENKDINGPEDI
# T2 sequence (P57751 2-470): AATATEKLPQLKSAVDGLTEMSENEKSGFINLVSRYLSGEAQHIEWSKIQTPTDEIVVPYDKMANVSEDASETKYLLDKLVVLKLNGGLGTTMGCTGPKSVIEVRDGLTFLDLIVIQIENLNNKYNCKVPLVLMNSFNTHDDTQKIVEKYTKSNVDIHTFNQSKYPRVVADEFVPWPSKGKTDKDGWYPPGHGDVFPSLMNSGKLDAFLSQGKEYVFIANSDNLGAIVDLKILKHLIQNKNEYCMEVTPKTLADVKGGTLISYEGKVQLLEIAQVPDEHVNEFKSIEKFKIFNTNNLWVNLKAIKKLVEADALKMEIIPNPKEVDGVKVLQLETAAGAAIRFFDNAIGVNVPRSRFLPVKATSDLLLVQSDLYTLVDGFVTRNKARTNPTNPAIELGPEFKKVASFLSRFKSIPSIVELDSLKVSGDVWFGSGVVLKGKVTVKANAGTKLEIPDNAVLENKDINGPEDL
# T3 sequence (Q9M9P3 2-469): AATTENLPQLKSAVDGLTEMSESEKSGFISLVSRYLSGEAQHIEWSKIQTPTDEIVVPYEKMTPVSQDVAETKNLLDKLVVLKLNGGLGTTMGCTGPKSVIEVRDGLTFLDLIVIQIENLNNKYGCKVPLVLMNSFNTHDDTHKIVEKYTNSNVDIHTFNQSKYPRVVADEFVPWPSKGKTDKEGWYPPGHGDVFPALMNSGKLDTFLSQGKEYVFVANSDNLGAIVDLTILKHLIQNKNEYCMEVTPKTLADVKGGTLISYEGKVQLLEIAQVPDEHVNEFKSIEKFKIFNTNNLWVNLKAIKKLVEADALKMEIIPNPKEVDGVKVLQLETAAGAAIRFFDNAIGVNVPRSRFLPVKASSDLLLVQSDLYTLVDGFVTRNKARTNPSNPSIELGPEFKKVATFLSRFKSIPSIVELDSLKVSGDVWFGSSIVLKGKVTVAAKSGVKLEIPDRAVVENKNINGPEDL
molecule,measurement,setting,value
Arabidopsis USPase (Arabidopsis thaliana),Km,[1],3.4 mM
same,Km,[2],1.3 mM
O=P(O)(O)O[C@]1(CO)O[C@H](CO)[C@@H](O)[C@@H]1O [Fru-2-P],Km,barley UGPase,> 10 mM
O=P(O)(O)O[C@H]1O[C@H](CO)[C@H](O)[C@H](O)[C@H]1O [Gal-1-P],Km,barley UGPase; estimate from near-linear rate up to 10 mM,> 10 mM
O=P(O)(O)O[C@H]1O[C@H](CO)[C@@H](O)[C@H](O)[C@H]1O [Glc-1-P],"Pi release from PPi, phosphomolybdate colorimetry",Arabidopsis UGPase2,plant UGPases are highly specific for Glc-1-P and UTP as substrates
O=c1ccn([C@@H]2O[C@H](COP(=O)(O)OP(=O)(O)OP(=O)(O)O)[C@@H](O)[C@H]2O)c(=O)[nH]1 [UTP],"Pi release from PPi, phosphomolybdate colorimetry",Arabidopsis UGPase2,plant UGPases are highly specific for Glc-1-P and UTP as substrates
barley UGPase (Hordeum vulgare),Km,[3],0.45 mM
O=P(O)(O)OCC1(O)O[C@H](CO)[C@@H](O)[C@@H]1O (some centres unmarked) [Fru-1-P],Km,"barley UGPase; estimate, clouding at and above 3 mM",> 10 mM
same,Km,Arabidopsis UGPase1,> 10 mM
Arabidopsis UAGPase2 (Arabidopsis thaliana),Km,[4],1.0 mM
same,Km,[5],3 mM
same,Km,[6],3.2 mM
same,Km,[7],0.21 mM
same,Km,O=P(O)(O)OP(=O)(O)O,0.32 mM

# — article PMC5609113, “Substrate Specificity and Inhibitor Sensitivity of Plant UDP-Sugar Producing Pyrophosphorylases” (Frontiers in Plant Science, 2017)
